This assay has as its system CD4+ T cells from C57BL/6J mice. The format is cell-based, mouse. Conditions: 72 hours.

B1: PFTR: P. fluorescens polypeptide of 198 amino acids (SEQ ID NO: 5), similar to bacterial ferrodoxins (protein)
chain: MRTMVDSGQLTDPESARGKLLQTAAHLFRNKGFERTTVRDLASAVGIQSGSIFHHFKSKDEILRAVMEETTHYNTAMMRASLEEASTVRERVLALIRCKLQSIMGGSGEAMAVLVYEWRSLSAEGQAHVLALRDVYEQIWLQVLGEAKAAGYIRGDVFITRRFLTGALSWTTTWFRAQGSLTLEELAEEALLMVLKSD
modifications: P. fluorescens
With B1, the “stimulation of CD4+ T cell proliferation” value was “strongly stimulated”.

These data come from patent US6821739B2, “Methods of diagnosing and treating Crohn's disease using Pseudomonas antigens” (The Regents of the University of California, priority 2000, dated 2004).
